{"source": "paper PMC9728937", "target": "FgSnt1^1-744-GST (Fusarium graminearum)", "experiment": "ITC", "conditions": "enzyme", "data": [{"substance": "Cpk1-HIS", "values": [{"measurement": "Kd", "value": 248, "unit": "nM"}]}]}
